Experimental findings from patent US20150064751 are described below.

The test system of the series is cleavage control protein containing an enterokinase cleavage site (Asp-Asp-Asp-Asp-Lys).

For recombinant enterokinase (Novagen), the “protease cleavage, detection of the 16 kDa cleavage fragment by immunoblot (2 h, room temperature)” value was “The target protein was specifically cleaved by recombinant enterokinase (lane 2)”.
